In assay [1] the target is T1, recombinant human IL-31 protein (UniProt Q6EBC2 24-164).
T1 chain: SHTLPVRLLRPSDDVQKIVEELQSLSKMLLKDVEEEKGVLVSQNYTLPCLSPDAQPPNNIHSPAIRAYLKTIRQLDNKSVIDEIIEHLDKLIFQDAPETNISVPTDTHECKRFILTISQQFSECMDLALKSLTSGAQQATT
Description: inhibition of IL-31/IL-31Rα interaction (ELISA); polyclonal IgG.

For assay [2], the target named is recombinant canine IL-31 protein with C-terminal 6-His tag, secreted from Expi293 cells (canine). Kind of assay: cell-based or functional assay.
Sequence of recombinant canine IL-31 protein with C-terminal 6-His tag, secreted from Expi293 cells (canine) (chain, as listed by the source, form in doubt): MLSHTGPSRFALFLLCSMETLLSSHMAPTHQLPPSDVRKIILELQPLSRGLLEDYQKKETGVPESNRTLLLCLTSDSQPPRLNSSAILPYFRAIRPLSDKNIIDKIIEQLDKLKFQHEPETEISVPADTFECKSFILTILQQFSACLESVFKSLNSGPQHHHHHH

B1: SEQ ID NO: 99 (protein)
chain: ISITEIKGVIVHRIETILFKKKKAIRAYLKTIRQLDNKSVIDEIIEHLDKLIFQDAPETNISVPTDTHECKRFILTISQQFSESMDL
With B1, the IC50 (commonly the concentration that gives 50% inhibition) in assay [1] came to 1.23 µg/mL.

B2: Cytopoint (anti-IL-31 mAb), monoclonal antibody to canine IL-31 (antibody, INN chains, looked up, V domains shown)
VH: EVQLVESGGDLVKPGGSLRLSCVASGFTFSNYGMSWVRQAPGKGLQWVATISYGGSYTYYPDNIKGRFTISRDNAKNTLYLQMNSLRAEDTAMYYCVRGYGYDTMDYWGQGTLVTVSS
VL: EIVMTQSPASLSLSQEEKVTITCKASQSVSFAGTGLMHWYQQKPGQAPKLLIYRASNLEAGVPSRFSGSGSGTDFSFTISSLEPEDVAVYYCQQSREYPWTFGQGTKLEIK
With B2, in assay [2], the IC50 of signaling inhibition (canine IL-31 induced pSTAT in DH82 monocytes) turned out to be 3.21 µg/mL and the inhibition of IL-31-induced pSTAT3 signaling phosphorylation lay in the range of 50 to 75%.

B3: SEQ ID NO: 87 (protein)
chain: ISITEIKGVIVHRIETILFKKKKLDNKSVIDEIIEHLDKLIFQDAPETNISVPTDTHECKRFILTISQQFS
For the molecule B3, the IC50 in assay [1] was determined as 0.277 µg/mL.

For the origin of these results see patent publication US20210079054A1 (published 2021).
